± gives the standard error. For part of these data: This sample holds only a part of the variants without activity.
B1: glmS ribozyme (parent)
chain: AUAAAAGCGCCAGAACUACAGAAAUGUAGUUGACGAGGAGGAGGUUUAUCGAAUUUUCGGCGGAUGCCUCCAAA

Tests used:
Conditions in all cases: with glucosamine-6-phosphate
glucosamine-6-phosphate [1] = variants of: B1; assay: kcat; higher = faster cleavage; RNA array
Outline: (§1)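 Glucosamine-6-phosphate in HEPES/KCl/Mg(OAc)2 buffer, at 40 μM to 10 mM, was flowed over barcoded ribozyme variants transcribed in situ by E. coli RNA polymerase on sequenced MiSeq chips. Tracking was through a hybridised Cy3 probe at 37 °C. kobs, kcat and KM came from exponential decay fits and weighted Michaelis–Menten fits of normalised per-tile medians.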

glucosamine-6-phosphate [2] = variants of: B1; assay: KM; higher = weaker cofactor use; RNA array
Outline: as §1

glucosamine-6-phosphate [3] = variants of: B1; assay: self-cleavage kobs at 160 uM GlcN6P; higher = faster cleavage; RNA array
Outline: as §1

glucosamine-6-phosphate [4] = variants of: B1; assay: self-cleavage kobs at 640 uM GlcN6P; higher = faster cleavage; RNA array
Outline: as §1

glucosamine-6-phosphate [5] = variants of: B1; assay: self-cleavage kobs at 2500 uM GlcN6P; higher = faster cleavage; RNA array
Outline: as §1

glucosamine-6-phosphate [6] = variants of: B1; assay: self-cleavage kobs at 10000 uM GlcN6P; higher = faster cleavage; RNA array
Outline: as §1

glucosamine-6-phosphate [7] = variants of: B1; assay: self-cleavage kobs at 40 uM GlcN6P; higher = faster cleavage; RNA array
Outline: as §1

AUAAAAGCGCCAGACCUACAGAAAUGUAGUUGACGAGGAGGAGGGUUAUCGAAUUUUCGGCGGAUGCCUCCAAA [A15C U45G] was tested, and the kcat (glucosamine-6-phosphate [1]) was 0.000779 ± 0.00013 s⁻¹, the KM (glucosamine-6-phosphate [2]) was 1570 ± 400 µM and the “self-cleavage kobs at 160 uM GlcN6P” value (glucosamine-6-phosphate [3]) was 7.06e-05 ± 1.5e-05 s⁻¹. For the same variant, the “self-cleavage kobs at 640 uM GlcN6P” value (glucosamine-6-phosphate [4]) was 0.000218 ± 2.9e-05 s⁻¹, the “self-cleavage kobs at 2500 uM GlcN6P” value (glucosamine-6-phosphate [5]) was 0.000568 ± 8.2e-05 s⁻¹ and the “self-cleavage kobs at 10000 uM GlcN6P” value (glucosamine-6-phosphate [6]) was 0.000562 ± 0.00014 s⁻¹.

In the case of AUAAAAGCGCCAGACCUACAGAAAUGUAGUUGACGAGGAGGAGGCUUAUCGAGUUUUCGGCGGAUGCCCCCAAA [A15C U45C A53G U69C], the kcat (glucosamine-6-phosphate [1]) is reported as 0.000427 ± 8e-05 s⁻¹, the KM (glucosamine-6-phosphate [2]) is reported as 3740 ± 1200 µM and the “self-cleavage kobs at 40 uM GlcN6P” value (glucosamine-6-phosphate [7]) is reported as under 1e-05 s⁻¹. The “self-cleavage kobs at 640 uM GlcN6P” value (glucosamine-6-phosphate [4]) was 5.45e-05 ± 2e-05 s⁻¹, the “self-cleavage kobs at 2500 uM GlcN6P” value (glucosamine-6-phosphate [5]) was 0.000198 ± 4.6e-05 s⁻¹ and the “self-cleavage kobs at 10000 uM GlcN6P” value (glucosamine-6-phosphate [6]) was 0.000288 ± 8.5e-05 s⁻¹.

For AUAAAAGCGCCAGACCUACAGAAAUGUAGUUGACGAGGAUGAGGUUUAUCGAAUUUUCGGCGGAUGCCUCCAAA [A15C G40U], the kcat (glucosamine-6-phosphate [1]) was 0.000399 ± 4.3e-05 s⁻¹, the KM (glucosamine-6-phosphate [2]) was 1140 ± 230 µM and the “self-cleavage kobs at 160 uM GlcN6P” value (glucosamine-6-phosphate [3]) was 5.39e-05 ± 1e-05 s⁻¹. For the same variant, the “self-cleavage kobs at 640 uM GlcN6P” value (glucosamine-6-phosphate [4]) was 0.000135 ± 1.4e-05 s⁻¹, the “self-cleavage kobs at 2500 uM GlcN6P” value (glucosamine-6-phosphate [5]) was 0.000333 ± 5.3e-05 s⁻¹ and the “self-cleavage kobs at 10000 uM GlcN6P” value (glucosamine-6-phosphate [6]) was 0.000348 ± 4.2e-05 s⁻¹.

With AUAAAAGCGCCAGACCUACAGAAAUGUAGUUGACGAGGAGAAGGUUUAUCGAAUUUUCGGCGGAUGCCUCCAAA [A15C G41A] the kcat (glucosamine-6-phosphate [1]) was 0.000104 ± 4.7e-06 s⁻¹, the KM (glucosamine-6-phosphate [2]) was 744 ± 120 µM and the “self-cleavage kobs at 640 uM GlcN6P” value (glucosamine-6-phosphate [4]) was 4.65e-05 ± 1.2e-05 s⁻¹. For the same variant, the “self-cleavage kobs at 2500 uM GlcN6P” value (glucosamine-6-phosphate [5]) was 8.56e-05 ± 1.8e-05 s⁻¹ and the “self-cleavage kobs at 10000 uM GlcN6P” value (glucosamine-6-phosphate [6]) was 9.45e-05 ± 1.5e-05 s⁻¹.

With AUAAAAGCGCCAGACCUACAGAAAUGUAGUUGACGAGGAGUAGGUUUAUCGAAUUUUCGGCGGAUGCCUCCAAA [A15C G41U] the kcat (glucosamine-6-phosphate [1]) was 0.000171 ± 7.6e-06 s⁻¹, the KM (glucosamine-6-phosphate [2]) was 879 ± 120 µM and the “self-cleavage kobs at 640 uM GlcN6P” value (glucosamine-6-phosphate [4]) was 7.33e-05 ± 2.3e-05 s⁻¹. For the same variant, the “self-cleavage kobs at 2500 uM GlcN6P” value (glucosamine-6-phosphate [5]) was 0.000137 ± 3.4e-05 s⁻¹ and the “self-cleavage kobs at 10000 uM GlcN6P” value (glucosamine-6-phosphate [6]) was 0.000154 ± 2.6e-05 s⁻¹.

For AUAAAAGCGCCAGACCUACAGAAAUGUAGUUGACGAGGAGGAGGUGUAUCGAAUUUUCGGCGGAUGCCUCCAAA [A15C U46G], the kcat (glucosamine-6-phosphate [1]) was 0.00166 ± 0.00022 s⁻¹, the KM (glucosamine-6-phosphate [2]) was 3240 ± 690 µM and the “self-cleavage kobs at 160 uM GlcN6P” value (glucosamine-6-phosphate [3]) was 8.08e-05 ± 2.2e-05 s⁻¹. The “self-cleavage kobs at 640 uM GlcN6P” value (glucosamine-6-phosphate [4]) was 0.000271 ± 4.6e-05 s⁻¹, the “self-cleavage kobs at 2500 uM GlcN6P” value (glucosamine-6-phosphate [5]) was 0.000681 ± 0.00011 s⁻¹ and the “self-cleavage kobs at 10000 uM GlcN6P” value (glucosamine-6-phosphate [6]) was 0.00129 ± 0.00019 s⁻¹.

For AUAAAAGCGCCAGACCUACAGAAAUGUAGUUGACGAGGAGGAGGUUUAUCGAAUUUUCGGCGGAUUCCUCCAAA [A15C G66U], the kcat (glucosamine-6-phosphate [1]) was 0.000265 ± 3.3e-05 s⁻¹, the KM (glucosamine-6-phosphate [2]) was 3080 ± 740 µM and the “self-cleavage kobs at 640 uM GlcN6P” value (glucosamine-6-phosphate [4]) was 4.02e-05 ± 7.2e-06 s⁻¹. For the same variant, the “self-cleavage kobs at 2500 uM GlcN6P” value (glucosamine-6-phosphate [5]) was 0.000134 ± 1.5e-05 s⁻¹ and the “self-cleavage kobs at 10000 uM GlcN6P” value (glucosamine-6-phosphate [6]) was 0.000194 ± 2.2e-05 s⁻¹.
